Reference: publication PMC8346945, “Evaluation of efficacy- versus affinity-driven agonism with biased GLP-1R ligands P5 and exendin-F1” (Biochemical Pharmacology, 2021)

Molecular target: SNAP-GLP-1R (glucagon-like peptide-1 receptor with an N-terminal SNAP-tag), stably expressed in HEK293 cells (UniProt P43220)
Chain of UniProt P43220 (P43220 24-463): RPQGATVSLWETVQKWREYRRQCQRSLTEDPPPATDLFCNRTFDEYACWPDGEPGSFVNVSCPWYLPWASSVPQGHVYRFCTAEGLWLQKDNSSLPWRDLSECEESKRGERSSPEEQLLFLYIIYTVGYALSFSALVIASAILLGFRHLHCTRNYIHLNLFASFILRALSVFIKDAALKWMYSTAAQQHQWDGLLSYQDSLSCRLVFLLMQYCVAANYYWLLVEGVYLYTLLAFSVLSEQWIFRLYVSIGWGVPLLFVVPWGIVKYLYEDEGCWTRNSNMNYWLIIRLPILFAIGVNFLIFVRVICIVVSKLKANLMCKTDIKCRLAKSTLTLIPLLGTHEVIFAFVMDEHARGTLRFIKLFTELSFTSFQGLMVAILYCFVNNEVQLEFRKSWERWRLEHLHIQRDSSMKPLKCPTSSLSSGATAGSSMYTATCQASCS

In the case of “Exendin-4 (from UniProt P26349 48-87) (peptide)”, the cAMP production in HEK293-SNAP-GLP-1R cells, 30-min stimulation, pEC50 is reported as 9.9 pEC50 (M).
